Source: patent publication US12391751B2, “Antibody against advanced glycation end products and use thereof” (Bloom Technology Corporation, priority 2018, dated 2025)

Assays:
[1] = target: T1, A-peak-BSA (Bos taurus, UniProt P02769); assay: Dissociation constant measurement of PB-1, Biacore T200 (Example 26); conditions: Biacore T200, CM5; ligand A-peak-BSA; PB-1 0.1953 to 50 nM; 1:1 binding model
Experimental: The dissociation constant (Kd value) of the monoclonal antibody PB-1 was measured by the following approach: A-peak-BSA was diluted with a 10 mM sodium acetate solution (pH 5.0) to prepare a ligand solution with a final concentration of 50 μg/mL. Biacore T200 (GE Healthcare Japan Corp.) was used for the immobilization of the ligand and the calculation of the KD value. The ligand solution was immobilized (final amount immobilized: 72 RU) onto sensor chip CM5 (GE Healthcare Japan Corp.) using an amine coupling kit (GE Healthcare Japan Corp.). Subsequently, PB-1 antibody dilution solutions from 0.1953 to 50 nM were prepared with a running buffer solution HBS-P+ (GE Healthcare Japan Corp.), and a sensorgram was obtained.
1:1 binding was adopted to a fitting model, and the sensorgram was analyzed.

[2] = target: T1, A-peak-BSA; assay: Suppression test of DAB oxidation of A-peak-BSA (Example 32); format: biochemical; conditions: PB-1 1.8 mg/mL; A-peak-BSA 2 mg/mL; white LED 3000 lux overnight
Experimental: Diaminobenzidine (DAB, Dojindo Laboratories) was prepared into 5 mg/mL in a PBS solution. A-peak-BSA (2 mg/mL, PBS solution) was prepared in the same way as in Example 24. 10 μL of the DAB solution was added to a 0.6 mL microtube (Watson), and 100 μL of PBS, the PB-1 antibody (1.8 mg/mL), or a mouse IgG isotype control (Ctrl-mIgG, Thermo Fisher Scientific Inc.) was further added thereto. After stirring with a vortex mixer, 10 μL of the A-peak-BSA solution was added thereto. These solutions were stirred with a vortex mixer and then irradiated overnight with white LED (3000 lux). The solutions thus irradiated with light were stirred with a vortex mixer, then spun down, and recovered at 100 μL/well into Violamo 96-well plate (AS ONE Corp.).
Absorbance at a wavelength of 460 nm was measured with a microplate reader (Cytation 5, BioTek Instrument Inc.) to detect oxidized DAB. The ordinate of the graph depicts a relative value to oxidized DAB detected in the antibody-untreated group (PBS addition group).

[3] = tested on: protein modified with the novel structure in human serum; assay: Western blotting of human serum protein purified with PB-1 antibody column (Example 37); format: binding; conditions: PB-1 as primary antibody; versus secondary antibody only
Experimental: The solvent for the PB-1 antibody was replaced with a coupling buffer solution (0.2 M sodium carbonate, 0.5 M NaCl, pH 8.3) through a PD10 column (GE Healthcare Japan Corp.) to prepare 1 mL of a 10 mg/mL PB-1 antibody solution. The coupling support used was NHS-activated Sepharose 4 Fast Flow (GE Healthcare Japan Corp.). 10 mL of 1 mM HCl cooled in an ice bath was injected to 1 mL of NHS-activated Sepharose 4 Fast Flow, immediately thereafter mixed with the preliminarily prepared 10 mg/mL PB-1 antibody solution, and mixed by inversion (4° C., overnight) using a rotator (Taitec Corp.) so that the PB-1 antibody was immobilized to the coupling support. Then, 3 mL each of a buffer solution for blocking (0.1 M Tris-HCl, pH 8.0) and a buffer solution for washing (0.1 M sodium acetate, 0.5 M NaCl, pH 5.0) was injected thereto in order, and this operation was repeated three times. Finally, the solvent was replaced by the injection of 10 mL of PBS, followed by storage at 4° C.
The purification sample used was human serum (pool) (Cosmo Bio Co., Ltd.). […] Each fraction obtained by purification was analyzed by electrophoresis (SDS-PAGE) according to a routine method. […]

T1 sequence (P02769 25-607): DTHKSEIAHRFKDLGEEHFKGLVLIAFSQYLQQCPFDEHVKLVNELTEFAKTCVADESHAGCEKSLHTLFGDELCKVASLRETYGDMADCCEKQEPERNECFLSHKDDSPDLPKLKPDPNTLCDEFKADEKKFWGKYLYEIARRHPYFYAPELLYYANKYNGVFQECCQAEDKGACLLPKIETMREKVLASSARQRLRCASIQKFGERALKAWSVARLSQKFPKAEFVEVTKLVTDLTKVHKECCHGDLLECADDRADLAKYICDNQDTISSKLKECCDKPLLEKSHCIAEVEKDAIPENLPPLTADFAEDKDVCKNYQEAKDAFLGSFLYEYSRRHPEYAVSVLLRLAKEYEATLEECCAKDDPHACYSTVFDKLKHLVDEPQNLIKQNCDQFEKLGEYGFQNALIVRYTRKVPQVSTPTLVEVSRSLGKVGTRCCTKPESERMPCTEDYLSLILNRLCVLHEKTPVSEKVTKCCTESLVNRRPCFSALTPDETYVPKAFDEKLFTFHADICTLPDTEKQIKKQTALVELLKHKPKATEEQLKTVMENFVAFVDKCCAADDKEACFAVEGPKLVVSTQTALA

B1: PB-1: mouse monoclonal antibody raised against A-peak-BSA; heavy-chain variable region SEQ ID NO 18, light-chain variable region SEQ ID NO 22 (antibody, listed as Mus musculus, V domains shown)
VH: EVRLQQSGPELVKPGTSVKISCKASGYSFTGYYMHWVKQSPVKSLEWIGRIIPYNGATSYNQNFKDKASLTVDKSSRTAYMDLHSLTSEDSAVYYCARSRYYGRAPYYFDYWGQGTTLTVSS
VL: DVVVTQTPLSLPVSLGDQASISCRSSQSIVHSNGNTYLEWYLQKPGQSPKLLIYKVSNRFSGVPDRISGSGSGTDFTLKISRVEAGDLGVYSCFQGSHVPFTFGSGTKLEIK
[1]
  Kd: 4.15 nM
[2]
  oxidized DAB (absorbance at 460 nm) compared with PBS or Ctrl-mIgG treatment group: largely decreased
[3]
  protein band detection in Western blotting: a band was detected
